Measurements taken from the DeepSol protein solubility set.

Experiment: soluble on expression in E. coli; label from the status in PepcDB or PDB records

Row | Sequence | soluble on expression in E. coli
1 | MGSDKIHHHHHHMKELAIASRDLVSPDGLAGYLRFVNAQPLLRPEEERDLARRLRDHGDVDAAKDLVLSHLRFVVRVARGYRGYGLQEADLIQEGNIGLMKAVKRYDPDHGVRLVSFAVHWVKAEIHEFILRNWRIVKVATTKAQRKLFFNLRSSRSHTGWMSGEESAAMADDLGVTQAQVLEMEGRMSGYDYSLNLEPDEEREGGRAPDLADPTGSPIEQLVERDWDQQQHRALHTALSALPQRDRYIIENRWLSDDPKTLQVLGDELGVSAERVRQLEKSSMGKLRQQMLTTAAVA | not soluble
2 | MHHHHHHSSGVDLGTENLYFQSMSSVTASAAPGTASLVPDYWIDGSNRDALSDFFEVESELGRGATSIVYRCKQKGTQKPYALKVLKKTVDKKIVRTEIGVLLRLSHPNIIKLKEIFETPTEISLVLELVTGGELFDRIVEKGYYSERDAADAVKQILEAVAYLHENGIVHRDLKPENLLYATPAPDAPLKIADFGLSKIVEHQVLMKTVCGTPGYCAPEILRGCAYGPEVDMWSVGIITYILLCGFEPFYDERGDQFMFRRILNCEYYFISPWWDEVSLNAKDLVRKLIVLDPKKRLTTFQALQHPWVTGKAANFVHMDTAQKKLQEFNARRKLKAAVKAVVASSRLG | soluble
3 | MGSDKIHHHHHHMTNRYDAVIIGAGHNGLVCGAYLARKGFKVCLLERRELAGGAAVSEAVWPGYRVSTASYTMALLQPRIIDELELAKYGYEIVVPPPMLHLYGDGRSLLFRPEGERLSADIARFSEADADAYGKYRAHMARLGKMVAGMLWETPPDPADSTLSARSRLLGFAWRFRDMGEQFYDLYDVLTLSARDYLARWFESDEMIAALGFYASCGGAATSICSPGSAYVLLRGFIRDHTTSAGPAGFVRGGMGSISEAIAASGKAYGMEVRCNAPVASVEISGERATGVRLSSGELIEAGCVISNVATKVLFQQLVGAQNVPPEFLARVRQIRDRSTAFKVNLALRRLPTFKDFDARSAGFAYPAQVRLAPSVEYLERAWDAAKYGEISPRPPLVVLTPSAVDPGVAPKGKHLMSIFGQHAPYALRDGPWDDAQRERLYQITLDTLAAYAPDIRECIDDAQVLSPADLERIFALPGGHVHHGELSADQIFFRRPVQGAADYCTPVKGLYQCGASVHPGGGVTGVPGYNAAHVVVRRERH | not soluble
4 | MGSDKIHHHHHHVEFIVGGATGEFYFLEMNTRLQVEHPVTEMITGLDLVEQMIRVAYGEKLKITQDDVKLQGWSMEARVYAEDPFRNFLPSTGRLTRYQPPAESQHVRVDTGVYEGGEISMFYDPMIAKLITYGPTRETAIAHMRQALDEYHIRGLSHNIPFLASLFSKERFVKGNLTTNFIAEEYPNGFTSSDLPSDDPTTLIAVAAAMKRRIVERNIQISGQFPGHEMKAPTEWTVLIGGTYHEVDVHPAPGGYAVVVEGEAVEVKTDWQIGDPLIRAKVDDRMVCVQVDRTGVSFRLSHSGVQAEVWVLTRPTAKLHKLMPFKAPPDMSKYLLSPMPGLLAKLLVEEGQEVKAGEPLAVVEAMKMENILKAERDAKIAKVHAKSGDSLAVDQKIIEFAS | not soluble
5 | MGSDKIHHHHHHMKSPTPALMLQGTSSNAGKSILTAAFCRILLQDGYRVAPFKAQNMALNSHVTADGLELGRAQAVQAAACRLDVDVRMNPVLLKPNSDTGSQVVVMGRPVGNMRVREYMAYKPVAFDAARAAYDSLAADVDVMVLEGAGSPAEVNLKAHDIVNMAMARHAEAKVLLVGDIDRGGVFASLVGTMELLDPWERDLVAGFVLNKFRGDATLLSPAYDVVTGRTGKPFLGVVPWLHDLGLPDEDSVSFRETLAGRAPDVPAGGGMLDIVLVDLPHISNFTDLDALRREPDVAVRVVRSPEQLGSPDAIILPGSKNTLGDLAALRSRGMAEALCALRSAEGGHLGPVIVGICGGFQMMGRFLADPQGVESDHACTEAGLGLLPVTTEMGSAKVLRRTSAKTVSGWCGAGVAAGLMPGTGGGHGGAEVCPGEGYAVHGYEIHHGVTTPDAGGGAVLVCLHESDGSPAGWTTPDGQVWGTYLHGVFDADGFRRGWLDALRVRRGLEPVGRVVARYDLDPALDRLADVVREAVDMGHIYSVLGLSPKGRRQT | not soluble
6 | MMKQHLDALKDSKYCPLWHDQDIRPETLPALSADTSCELLIVGGGFTGLWGALQAKERQPDADIILIEKTTISDGASGRNGGFLSSSLAHGETNTDHQFPGEADKLHQLGQQNLKEFIETLEHYNIDARYEKVGETSVATDQASVDALRATYESEKAQGEDVVWFNQEEMQAQVNSPTYLAGLWYRGGQDGVVDPARLCWGLKRVILELGVRIYEETPLTSLKKLGQDKMEVTCSDVKIISDKVLMATNAYRNPIGQARRSIIPVWDYQIATQPLSQEQLDSIGWHKSRHALSNHANMFHYYRFTKDNRITWGGGGAVRYYFNNGIDQSYADIPERFAQLSEEFFETFPQLKGIKFTHRWSGIIATSTRFCVVPGVAYDGRVAWAIGYTGLGVGASRFGARIGIELLGYKPSEILDMQFVKKKPIPWAPEPLRWIGVYLTHKALEKADANGGKRGLWLKLLDMLNLGFTCLEHHHHHH | not soluble
7 | MQPDLHCRTLAAHTLKHFRALSPLTHCMTNDVVQTFTANTLLALGASPAMVIDPVEARPFAAIANALLINVGTLTASRADAMRAAVESAYDAKTPWTLDPVAVGALEFRRRFCLDLLSLRPAAIRGNASEILALSGMALGGRGVDTTEAALAALPAAQALARQIDCIVVVTGEIDYVTNGQRTLSIPGGDPLMTRIVGTGCALSAVVAASCALPGAALDNVASACCWMKLAGQAAAERSEGPGSFIPAFLDALYHLDVEAANATN | not soluble
8 | MNSITVRNATFTWARSDPPTLNGITFSIPEGALVAVVGQVGCGKSSLLSALLAEMDKVEGHVAIKGSVAYVPQQAWIQNDSLRENILFGCQLEEPYYRSVIQACALLPDLEILPSGDRTEIGEKGVNLSGGQKQRVSLARAVYSNADIYLFDDPLSAVDAHVGKHIFENVIGPKGMLKNKTRILVTHSMSYLPQVDVIIVMSGGKISEMGSYQELLARDGAFAEFLRTYASHHHHHH | soluble
9 | GPGSMSSSGPLAPPISWAQRPEYVLITIPLQDTTGVSVEIKDEGRELHFACSSPEHKQYACTIHFYGVISSEESQHVVRPRQIELKLRKKFSKSLEDANDDEVEWPRLTKEKSKYPNITIDWSKWKDENDDECAADDLGNFGLSGGDAMDGQYSEMLSQLMQAQGQKDAEESADLPPGTIPGFGSARGQEATHGASAETGDDDGDMPPLEEDT | soluble
10 | MSIRDWPEAERPREKLLEQGAAALSDAELLAIFLRTGVTGCSAVELSRRLLSEFGGLRALLEADLASFCGHLGLGVAKYAQLQAVLEMGRRHLAERLRRDSILESPQAVRDYLKARLRHEQHEVFACLFLDTRHRVLSFEVLFQGSIDGASVYPRQVVKRTLAHNAAALILTHNHPSGDARPSLADRQLTARLKEALALIDVRVLDHFIIGDGEPLSLAEYGWL | not soluble
11 | MGTIGKKAAKGASVKFSESSTQAVIKATYLQVFGRDVYEGQRLKVQEIKLENGEISVRDFVRALAKSDLFRKLYWTPFYVCKAIEYIHRRLLGRPTYGRQENNKYFDIASKKGLYAVVDAILDSLEYTETFGEDTVPYERYLTPAGLEHHHHHH | not soluble
12 | MSLDSRPKLPQTLSRGWGDQLIWTQTYEEALYKSKTSNKPLMIIHHLDECPHSQALKKVFAENKEIQKLAEQFVLLNLVYETTDKHLSPDGQYVPRIMFVDPSLTVRADITGRYSNRLYAYEPADTALLLDNMKKALKLLKTELEGHHHHHH | soluble
13 | GKRDNLEIDRTGLALTAFYARNLAVPERRRVEHPQVLRGKQLFHEAGCPACHVPKFVTHRLKDQPEQSFQLIWPYTDLLLHDMGEGLADGRPEGRATGREWRTAPLWGIGLTEQVSGHANFLHDGRARSILEAVLWHGGEAEAARARVMALPAPDRAALVAFVEDL | not soluble
14 | MSLATKVTLKDVAARAGVSYQTVSKVLNGEMQVAPETMERIQAAVQELGYRPNRIARNMRAGRSFMIGYSWTQTEPGQVNHILDQFLSSMVREAGAVNYFVLPFPFSEDRSQIDIYRDLIRSGNVDGFVLSSINYNDPRVQFLLKQKFPFVAFGRSNPDWDFAWVDIDGTAGTRQAVEYLIGRGHRRIAILAWPEDSRVGNDRLQGYLEAMQTAQLPIETGYILRGEGTFEVGRAMTLHLLDLSPERRPTAIMTLNDTMAIGAMAAARERGLTIGTDLAIIGFDDAPMVQYLFPPLSSVRQPIAEAGRKCIELLVAIVEGREPEQKHILLQPSLIIRASEGHHHHHH | soluble
15 | MINKTKRLMVPRTVKIPRKTYFWGPTPLPGRHKADHSVTLLTIIRDYLRLSDKEREATRILANGLVKVDGKVVKERKFGVGFMDVIEISGESYRVVYNNQGALVLVSESKDRANMKPLQVKNKVIAPGNKIQLGFHDGRVMVTEDRSISVGDVVIASLPDMKITEIIKMQPGNKAFITGGSHVGETGTISKIEIKESSSANLVHFDEGFTTVKDHVFVIGSPRFTFTMPSGEVYPLEHHHHHH | not soluble
16 | MGSDKIHHHHHHMELIEILLKKLNKNAVVTEIAKDKDPFKVLISTIISARTKDEVTEEVSKKLFKEIKDVDDLLNIDEEKLADLIYPAGFYKNKAKNLKKLAKILKENYNGKVPDSLEELLKLPGVGRKTANLVITLAFNKDGICVDTHVHRICNRWEIVDTETPEETEFELRKKLPKKYWKVINNLLVVFGREICSSKSKCDKCFKEIKEKCPYYEKIKHFENILKKFNFRKVSKNKIPNEKGTYILKIRLKEGKKIKFGKTERFFKKGYYFYIGSAFGNSMNLKNRIERHLKDDKKMHWHIDYLLKYGKIEEIYITNERVECEVANEFIKKFDFVENFGCSDCKCKSHLFYLKP | not soluble
17 | MKRAAFYTLGCKVNQYETEAISEMFEKAGYKIVDFEDEADVYVINTCTVTNLSDRKSRQMIRRAKRNNENSIVIVIGCYAQTAPEEVSKIEGVNLVVGTKDRSRILEYLKELETSGGRRNYVGDIMKTREFEELGVNVYKERTRAFIKIQEGCNQFCTYCIIPYARGPVRSRSEENILKEVSGLAHSGYKEVVLTGIHVASYGKDIKNTSLIDIIRKVHEIEGIERIRLGSIEPTTVTEEFVRAIKGMEKLCPQFHISLQSGCDSTLKRMNRKYTTKEYLRSVELLRENLKDVAVTTDVMVGFPGETDEEFNETCRFVEKVLFARMHVFKYSRRKGTPAASYPDQVAPQKKEERSRILIELASRMTLEYNKSFTGRVLPVLFEQEVKGKEGFMEGLTPNYIRVECKGDKDIEGQILNVLLREAKDDYIVGEIVN | soluble
18 | MHCPFCDTEETKVIDSRLVSDGYQVRRRRECGHCHERFTTFEMAELIIPKIIKTDGTREPFNEDKLRSGIQHALEKRPVSADDVEKAINHIILQLRATGEREVPSKLVGKLAMNELKKLDKVAYIRFASVYLSFDDIDQFTIEIEKLKD | not soluble
19 | SRIKMKKARKILAEKRAAAPVVSVPCIPPHRLSKITNRLTIQRKSQFMQRLHSYWTLKRQSRNGVPLLRRLQTHLQSQRNCDQVGRDSEDKNWALKEQLKSWQRLRHDLERARLLVELIRKREKLKRETIKVQQIAMEMQLT | not soluble
